Measured values as given in the nanobody polyreactivity screen of Harvey et al. (2022).

Assay: yeast display, Sf9 membrane polyspecificity reagent, FACS + sequencing; frameworks hold sequencing errors
How it was run: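 After 36–48 hours of galactose induction, yeast (Saccharomyces cerevisiae BJ5465) displaying a synthetic nanobody library were stained at 4 °C for 1 hour with 10% biotinylated, detergent-solubilized Sf9 membrane reagent. Streptavidin microbeads enriched the stained cells before FACS sorting into low and high (top ~1%) gates on anti-HA and streptavidin fluorescence. Each clone's polyreactivity label reflects its gate of origin.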

Row | Sequence | polyreactivity (PSR sort gate)
1 | QVQLVESGGGLVQAGGSLRLSCAASGRTFVPYVMGWYRQAPGKESELVASITSGGSTYYADSVKGRFTISRDNAKNTVYLQMNSLKPEDTAVYYCATRQSAERWGYYYWGQGTQVTVSS | low polyreactivity
2 | QVQLVESGGGLVQAGGSLRLSCAASGRTFVRNAMGWYRPAPGKERELVAAISSIGDSTYYADSVKGRFTISRDNAKNTVYLQMNSLKPEDTAVYYCAAEWVTSYYNYYHWGQGTQVTVSS | low polyreactivity
3 | QVQLVESGGGLVQAGGSLRLSCAASGRTFVRNAMGWYRQAPGKERELVAAISRGGRTNYADSVKGRFTISRDNAKNTVYLQMNSLKPEDTPVYYCATGAGYYSDYDYWGQVTQVTVSS | high polyreactivity
4 | QVQLVESGGGLVQAGGSLRLSCAASGRTFVRNAMGWYRQAPGKERELVAAISSIGDSTYYADSVKGRFTISRDNAKNTVYLQMNSLKPEDTAVYYWAAEWVTSYYNYYHWGQGTLVTVSS | low polyreactivity
5 | QVQLVESGGGLVQAGGSLRLSCAASGRTFVRNAMGWYRQAPGKERELVATIRSGGSTNYADSVKGRFTISRDNAKNTVYLQMNSLKPEDTAVYYCATQGSRARYDYYYWGQGTQVTVSS | high polyreactivity
6 | QVQLVESGGGLVQAGGSLRLSCAASGRTFVRYAMGWYRQAPGKERELVARITSRGTSTYYADSVKGRFTISRDNAKNTVYLQMNSLKPEDTAVYYCNKVSTFREKSRYDYWGQGTQVTVSS | low polyreactivity
7 | QVQLVESGGGLVQAGGSLRLSCAASGRTFVRYTMGWYRQAPGKERELVAAISISGGRTYYADSVQGRFTISRDNAKNTVYLQMNSLKPEDTAVYYCAKDYLGGQLASTGGYDYWGLGTQVTVSS | low polyreactivity
8 | QVQLVESGGGLVQAGGSLRLSCAASGRTFVSNAMGWYRQAPGKERELVAAISGSGGITYYADSVKGRFTISRDNAKNTVYLQMNSLKPEDTAVYYCNADSSGWFPFDYWGQGTQVTVSS | low polyreactivity
9 | QVQLVESGGGLVQAGGSLRLSCAASGRTFVSYAMGWYRQAPGKERELVADITIGGSTNYADSVKGRFTISRDNAKNTVYLLMNSLKPEDTAVYDCAAYYSYPWDTVTTVDLYDYWGQGTQVTVSS | low polyreactivity
10 | QVQLVESGGGLVQAGGSLRLSCAASGRTFVSYAMGWYRQAPGKERELVATITGSTGGTYYADSVKGRFTISRDNAKNTVYLQMNSLKPEDTAVYYCAADRTTYTYYLPYDYWGQGTQVTVSS | low polyreactivity
11 | QVQLVESGGGLVQAGGSLRLSCAASGRTFVSYVMGWYRQAPGKERELVAAITWRGGSTYYADSVKGRFTISRDNAKNTVYLQMNSLKPEDTAVYYCAAPSHGSTSDRYYKFYYWGQGTQVTVSS | high polyreactivity
12 | QVQLVESGGGLVQAGGSLRLSCAASGRTFVTNAMGWYRQAPGKERELVAAISSNGGSTYYADSVKGRFTISRDNAKNTVFLQMNSLKPEDTAVYYCNAEGQPLYVSWHDHRYIYGFDYWGQGTQVSVSS | low polyreactivity
13 | QVQLVESGGGLVQAGGSLRLSCAASGRTFVTYAMGWYRQAPGKERELVAAISKRGSRTYYADSVKGRFTISRDNAKNTVYLQMNSLKPEDTAVYYCNADPYRTSYDYWGQGTQVTVSS | high polyreactivity
14 | QVQLVESGGGLVQAGGSLRLSCAASGRTFVTYAMGWYRQAPGKERELVATINYSGGSTNYADSVKGRFTISRDNAKNTVYLQMNSLKPEDTAVYYCNTVPRQHRPGDYWGQGTQVTVSS | low polyreactivity
15 | QVQLVESGGGLVQAGGSLRLSCAASGRTFVVNAMGWYRQAPGKEREFVAAISYRGDSTYYADSVKGRFTISRDNAKNTVYLQMNSLKPEDSAVYYCAARVLGPGRRYYYWGQGTQVTLSS | high polyreactivity
16 | QVQLVESGGGLVQAGGSLRLSCAASGRTFVVNAMGWYSPAPGKEREFVAGISVRGGITYYADSVKGRFTISRDNAKNTVYLQMNSLKPEDTAVYYCAAYILDYGGDQRIFDYWGQGTQVTVSS | low polyreactivity
17 | QVQLVESGGGLVQAGGSLRLSCAASGRTFVVYAMGWYRQAPGKERELVAAISYSGGSTYYADSVKGRFTISRDNAKNTVYLQMNSLKPEDTAVYYCAAVHLGYYHIYGLGYWGQGTQVTVSS | high polyreactivity
18 | QVQLVESGGGLVQAGGSLRLSCAASGRTFVVYAMGWYRQAPGKERELVAGSGSTFYADSVKGRFTISPDNAKNTVYLQMNSLKPEDTAVYYCAADHPALYSLDWDTAYDYWGQGTQVTVSS | low polyreactivity
19 | QVQLVESGGGLVQAGGSLRLSCAASGRTFVVYAMGWYRQAPGKERELVAVISFTGDSTFYADSVKGRFTISRDNSKNTVYLQMNSLKPEDTAVYYCAADFRRVFSKYSYYLYFDFDYWGQGTQVTVSS | low polyreactivity
20 | QVQLVESGGGLVQAGGSLRLSCAASGRTFVWNAMGWYRQAPGKERELVAAITSGGSTNYADSVKGRFTISRDNAKNTVYLQMNSLKPEDTAVYYCAADWQYSPRMDYWGQGTQVTVSS | low polyreactivity
21 | QVQLVESGGGLVQAGGSLRLSCAASGRTFVYNAMGWYRQAPGKERELVAAISAIDGSTYYADSVKGRFTISRDNAKNTVYLQMNSLKPEDTAVYYCAADTQLEASHKDRYEYDYWGQGTQVTVSS | low polyreactivity
22 | QVQLVESGGGLVQAGGSLRLSCAASGRTFVYNAMGWYRQAPGKERELVAAISQSGGSTYYADSVKGRFTISRDTAKNSVYLQMNSLKPEVTAVYDCAARYTTGSYVRYNFWGQGTQVTVSS | high polyreactivity

Row | Sequence | polyreactivity (PSR sort gate)
23 | QVQLVESGGGLVQAGGSLRLSCAASGRTFVYNAMGWYRQAPGKERELVATITSSGNTYYADSVKGRFTISRDNAKNTVYLQMNSLKPEDTAVYYCNRRYWTSGYWGQGTQVTVSS | high polyreactivity
24 | QVQLVESGGGLVQAGGSLRLSCAASGRTFVYNAMVWYRQAPGKEREFVAAISWRGGSTFYADSVKGRFTISRDNAKNTVYLQMNSLKPEDTAVYYCAAEGWYYRYDYWGQGTQVTVSS | high polyreactivity
25 | QVQLVESGGGLVQAGGSLRLSCAASGRTFVYYAMGWYRQAPGKERELVAAIRRDTRTYYADSVKGRFTISRDNAKNTVYLQMNSQTPEDTAVYYCAADDPWHYDFDYWGQGTQVTVSS | low polyreactivity
26 | QVQLVESGGGLVQAGGSLRLSCAASGRTFVYYAMGWYRQAPGKERELVAAISSGGSTYYADSVKGRFTISRDNAKNTVYLQMNSLKPEDTAVYYCNALRYTHYLLTYGYWGQGTQVTVSS | high polyreactivity
27 | QVQLVESGGGLVQAGGSLRLSCAASGRTFVYYAMGWYRQAPGKERELVAAITSGGGTNYADSVKGRFTISRDNAKNSVYLQMNSLKPEDTAVYYCNADPRWYHFEYGYWGQGTQVTVSS | high polyreactivity
28 | QVQLVESGGGLVQAGGSLRLSCAASGRTFVYYDMGWYRQAPGKERELVAAISRRGDTTYYADSVKGRFTISRDNAKNTVYLQMNSLKPVDTAVYYCNARSIKYGSWGQGTQVTVSS | high polyreactivity
29 | QVQLVESGGGLVQAGGSLRLSCAASGRTFWAYALGWYRQGPGKERELVAAITTSGGSTNYADSVKGRFTISRDNAKNTVYVQLHSLKPEDTAVYYCNADPTYPVVNGVGYWGQGTQVTVSS | low polyreactivity
30 | QVQLVESGGGLVQAGGSLRLSCAASGRTFWDYAMGWYRQAPGKERELVAAITGGITNYADSVKGRFTISRDNAKNTVYLQMNSLKPEDTAVYYCAVYYRRWFSRYDYWGQGTQVTVSS | low polyreactivity
31 | QVQLVESGGGLVQAGGSLRLSCAASGRTFWDYGMGWYRQAPGKERELVATISGNGGDTYYADSVKGRFTISRDNAKNTVYLQMNSLKPEDTAVYYCAAAWPSTGLLYVLGYSGYGYWGQGTQVTVSS | low polyreactivity
32 | QVQLVESGGGLVQAGGSLRLSCAASGRTFWFNAMGWYRQAPGKERELVASITLSGGSTYYADSVKGRFTISRDNAKITVYLQMNSLKPEDTAVYYCAADQTVHISSYDYWGQGTQVTVSS | low polyreactivity
33 | QVQLVESGGGLVQAGGSLRLSCAASGRTFWFYDMGWYRQAPGKEREFVASITSSGGSTYYADSVKGRFTISRDIAKNTVYLQMNSLKPEDTAVYYCAASFYWTTRYSREYDYWGQGTQVTVSS | high polyreactivity
34 | QVQLVESGGGLVQAGGSLRLSCAASGRTFWGYAMGWYRQAPGKERELVAAISCRGGRTYYADSVKGRFTISRDNAKNTVYLQMNSLKPEDTAVYYCNRAYLLRPDLYDYWGQGTQVTVSS | low polyreactivity
35 | QVQLVESGGGLVQAGGSLRLSCAASGRTFWGYAMGWYRQAPGKERELVAAISWSGTSTYYADSVKGRFTISRDNAKNTVYLQMNRLKPEDSAVYYCARAVNDWSRKYNYWGQGTLVTVSS | high polyreactivity
36 | QVQLVESGGGLVQAGGSLRLSCAASGRTFWKYAMGWSRQAPGKERELVAAITDDDSTDYADSVKGRFTISRDNAKNTVYLQMTSLKPEYTAVYYCNADSSRYYRALEYWGQGTQVTVSS | low polyreactivity
37 | QVQLVESGGGLVQAGGSLRLSCAASGRTFWKYAMGWYRQAPGKERELVAAISSSGGNTYYADSVKGRFTISRDNAKNSVYLQMNSLKPEDTAVYYCAARLPRGAYYYWGQGTQVTVSS | high polyreactivity
38 | QVQLVESGGGLVQAGGSLRLSCAASGRTFWNNAMGWYRQAPGKERELVAAISVRGGSTYYADSVKGRFTISRDNAKNTVYLQMNSLKPEDTAVYYCATRSRGWIAPPWQGSDGYYYWGQGTQVTVSS | low polyreactivity
39 | QVQLVESGGGLVQAGGSLRLSCAASGRTFWNYAMGWSRQAPGKERELVAVIRFSDGSTYYADSVKGRFTISRDNAKNTVYLQMNSLKPEDTAVYYCAAKGPRRWGSGFDYWGQGTQVTVSS | low polyreactivity
40 | QVQLVESGGGLVQAGGSLRLSCAASGRTFWNYAMGWYRQAPGKERELVAVIRFSDGSTYYADSVKGRFTISRDNAKNTGYLQMISLKPEDTAVFYCAAKGPRRWGSGFDYWGQGTQVTVSS | low polyreactivity
41 | QVQLVESGGGLVQAGGSLRLSCAASGRTFWPYAMGWYRQAPGKERELLAAITSDGSTTYADSVKGRFTISRDNAKNTVYLQMNSLTPEDTAVYYCAAYGYYYYQTIPMDYWGQGTQVTVSS | low polyreactivity
42 | QVQLVESGGGLVQAGGSLRLSCAASGRTFWQYSMGWYRQAPGKERELVAAITSSGGSTYYADSVKGRFTISRDNAKNTVYLQMNSLKPEDTAVYYCAADTRYYRYYYWGQGTQVTVSS | high polyreactivity
43 | QVQLVESGGGLVQAGGSLRLSCAASGRTFWRYAMGWYRQAPGKERELVAAISVSGGTTYYADSVKGRFTISRDNAKNTVYLQMNSLKPEDTAVYYCAARYGSIYSILYYGFDYWGQGTQVTVSS | high polyreactivity
